Experimental data published in patent US10611798B2, “PAR1 and PAR2 c-tail peptides and peptide mimetics” (Hadasit Medical Research Services and Development Ltd., priority 2010, dated 2020).

What was measured:
[1] = target: T1, association between Etk/Bmx and PAR1-C-tail (Homo sapiens, UniProt P51813); test: Competition experiment: co-immunoprecipitation of HA-PAR1 and T7-tagged Etk/Bmx in MCF7 clones; format: cell-based; settings: 20 minutes after activation by thrombin or TFLLRN, IP anti-HA, blot anti-T7, FIG. 22
T1 construct: expressed in transfected cells
T1 sequence (P51813 1-675): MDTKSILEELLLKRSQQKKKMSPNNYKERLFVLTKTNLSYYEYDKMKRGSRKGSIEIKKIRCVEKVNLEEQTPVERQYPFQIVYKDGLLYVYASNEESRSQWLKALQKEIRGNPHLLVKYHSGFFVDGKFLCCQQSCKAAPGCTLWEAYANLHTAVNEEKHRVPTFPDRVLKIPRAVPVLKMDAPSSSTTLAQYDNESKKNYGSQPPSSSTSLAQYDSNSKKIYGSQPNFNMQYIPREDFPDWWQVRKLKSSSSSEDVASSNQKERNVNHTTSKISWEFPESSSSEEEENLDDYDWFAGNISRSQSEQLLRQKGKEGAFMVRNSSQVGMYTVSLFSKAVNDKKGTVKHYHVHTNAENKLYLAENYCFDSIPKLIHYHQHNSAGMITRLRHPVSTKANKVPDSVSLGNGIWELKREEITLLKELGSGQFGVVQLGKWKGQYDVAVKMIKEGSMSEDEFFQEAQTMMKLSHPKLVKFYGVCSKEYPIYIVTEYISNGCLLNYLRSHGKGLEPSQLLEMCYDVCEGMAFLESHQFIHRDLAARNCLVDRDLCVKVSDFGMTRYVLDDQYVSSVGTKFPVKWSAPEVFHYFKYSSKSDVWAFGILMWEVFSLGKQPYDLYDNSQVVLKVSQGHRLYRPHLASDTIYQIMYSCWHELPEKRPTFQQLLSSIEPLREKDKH
Procedure: Western blot and immunoprecipitation analysis: Cells were activated with agonist peptide TFLLRNPNDK (SEQ ID NO: 35) for the indicated periods of time and solubilized in lysis buffer containing 10 mM Tris-HCl, pH 7.4, 150 mM NaCl, 1 mM EDTA, 1% TritonX-100, and protease inhibitors ([…] aprotinin, 1 mM phenylmethylsulfonylfluoride, and […] leupeptin) at 4° C. for 30 min. The cell lysates were subjected to centrifugation at 12,000 rpm at 4° C. for 20 min. We used 400 μg of the supernatants with anti-PAR1 (ATAP, Santa Cruz, Calif. 1 μg), anti-HA (anti-HA sc-7392; Santa Cruz, Calif.), anti-Shc or Etk/Bmx antibodies (10 μg/ml). After overnight incubation, Protein A-Sepharose beads (Amersham Pharmacia Biotech, Buckinghamshire, UK) were added to the suspension (50 μl ), which was rotated at 4° C. for 1 h. The immunocomplexes were eluted and run electrophoretically on a 10% SDS-PAGE gel, followed by transfer to an Immobilon-P membrane (Millipore). Membranes were blocked and probed with 1 μg/ml amounts of the appropriate antibodies as follows: anti-PAR1 thrombin receptor mAb, (ATAP, from Santa Cruz, 1:1000); anti-Shc (BD, 1:2000); anti-Bmx (Transduction Laboratories, 1:1000) or anti-PY (Upstate 4G10, 1:2500), suspended in 3% BSA in 10 mM Tris-HCl, pH 7.5, 100 mM NaCl, and 0.5% Tween-20. […] Immunoreactive bands were detected by enhanced chemiluminescence (ECL). […]

[2] = target: T2, PAR1 binding to GST-PH-Etk/Bmx (Homo sapiens, UniProt P51813); test: Peptide competition for binding of PAR1 cell lysates to GST-PH-Etk/Bmx; settings: 1-1000 nM applied peptide; Western blot, FIG. 7B/7C
T2 construct: made in house; host or cells: Escherichia coli (general statement on GST fusion proteins)
T2 sequence (P51813 4-111 limits assumed): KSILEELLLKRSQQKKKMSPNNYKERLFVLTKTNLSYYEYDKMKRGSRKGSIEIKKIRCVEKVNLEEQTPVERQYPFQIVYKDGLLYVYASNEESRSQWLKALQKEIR
Procedure: GST fusion protein columns. Fusion proteins were purified from transformed Escherichia coli bacteria that had been stimulated with isopropyl-β-D-thio-galactopyranoside (IPTG) at a concentration of […]. Bacteria were lysed according to published procedures, and then immobilized on glutathione Sepharose beads (Pharmacia). Briefly, MDA-MB-435 cell lysates were applied to GST-PAR1 C-tail or GST control columns. After 2 h binding periods to the designated protein/s cell lysates to the columns, a washing step was performed. The washes (×3) were carried out using a “wash buffer” including: 100 mM NaCL, 20 mM EDTA, 10 mM Tris, pH 8.0 and 1% Triton ×100. This step was performed in order to wash out all non-specific proteins, leaving the GST-PAR1-C-tail column firmly bound to targeted cell lysate proteins. Next, elution of bound proteins was performed via the addition of gel “sample buffer” and appropriate boiling. The samples were run electrophoretically on SDS-PAGE gels, followed by immunoblotting with the indicated antibodies and ECL detection.
GST-PH-Etk/Bmx. The PH domain in Etk/Bmx was bound to GST column as previously described (Chen R, et al. (2001) Nat Cell Biol. 3: 439-444). Purification of PAR1 C-tail fragments. PAR1 C-tail fragments were generated using a “thrombin cleavage capture kit” (Novagen, Madison, Wis.; Cat no. 69022-3). The enzyme used for the cleavage was biotinylated human thrombin. Briefly, the cleavage was performed according to the manufacturer instructions. Biotinylated thrombin was removed from the cleavage reaction using streptavidin agarose beads, and the cleaved peptides (e.g., wt PAR1-C-tail and Y38 1A C-tail) were isolated and loaded on a GST-Etk-PH column. After incubation for 4 h the purified fragments were applied onto the GST-PH-Etk/Bmx column and detected following gel separation and western blotting analysis using anti-PAR1 antibodies (ATAP, Santa Cruz, Calif. ).
Identification of PAR1-Etk/Bmx binding region: functional consequences. […]

[3] = system: MDA-MB-435 cells; test: Wound assay (cell migration) in MDA-MB-435 cell monolayer; format: cell-based, human; settings: MDA-MB-435 monolayer, 24 h, PAR1 activation; compared to control untreated cells; FIG. 9D
Procedure: In a parallel experiment, a wound assay for determining the rate of cell migration, showing the ability of the cells to fill in gaps in an MDA-MB-435 cell monolayer, was performed. MDA-MB-435 cell monolayer expressing endogenous Etk/Bmx was scratched to introduce an equal gap-area under the following conditions: control untreated cells, TFLLRNPNDK-activated or SiRNA-Etk/Bmx and TFLLRNPNDK-activated. […] Similar inhibition was obtained in the presence of the PAR1 antagonist, SCH 79797 (FIG. 9D, bottom panel), pointing to the important role of both PAR1 and Etk/Bmx in wound closure/migration of PAR1-activated MDA-MB-435 cells.

competition for the binding of PAR1 cell lysates to GST-PH-Etk/Bmx [2]	Molecule	closure of the wound / migration [3]	further results
	SSECQRYVYSIL (listed as Homo sapiens) [NH2-SSECQRYVYSIL-COOH]		association between Etk/Bmx and PAR1-C-tail in the presence of the peptide [1]: No binding is observed
did not compete	peptide 5: peptide representing PAR1 C-tail 387-400 (CCKESSDPSSYNSS; UniProt P25116 387-400, looked up, fragment)		
did not compete	residues 393-412: peptide representing PAR1 C-tail residues 393-412 (DPSSYNSSGQLMASKMDTCS; UniProt P25116 393-412, looked up, fragment)		
	TFLLRNPNDK (listed as Homo sapiens)	Rapid closure of the wound	
dose-dependent inhibition	peptide 4: 18-amino-acid peptide encompassing residues 375-392 of PAR1 C-tail (SSECQRYVYSILCCKESS; UniProt P25116 375-392, looked up, fragment)		
	CC(C)c1ccc(Cn2ccc3c4c(N)nc(NC5CC5)nc4ccc32)cc1 [SCH79797]	attenuated wound closure	
